Article PMC4611135

How the values were obtained:
[1] = target: DndCDE complex (Salmonella enterica serovar Cerro 87); assay: SEC; DndCDE complex saturated with IscS, purified on Superdex 200; molar ratio by densitometry of the Coomassie-stained SDS-PAGE bands
[2] = target: DndE-His (Salmonella enterica serovar Cerro 87); assay: pull-down; co-expression of dndDE with His tag on DndE (pDndDEH) in E. coli BL21 (DE3); nickel purification, 15% SDS-PAGE

| stoichiometry N [2] [molar ratio] | Substance | stoichiometry N [1] [molar ratio] |
| --- | --- | --- |
| – | Strep-IscS (from UniProt P0A6B7 1-404) (natural protein) | 1 |
| 1 | DndD (natural protein) | – |
